Data as given in article PMC2959125 (Biochemistry, 2010).
Numbering of substitutions follows the chain as printed. Numbers in names are those of the source.

B1: N-acetyl-L-ornithine transcarbamylase from Xanthomonas campestris, K302A mutant (enzyme)
chain: MSLKHFLNTQDWSRAELDALLTQAALFKRNKLGSELKGKSIALVFFNPSMRTRTSFELGAFQLGGHAVVLQPGKDAWPIEFNLGTVMDGDTEEHIAEVARVLGRYVDLIGVRAFPKFVDWSKDREDQVLKSFAKYSPVPVINMETITHPCQELAHALALQEHFGTPDLRGKKYVLTWTYHPKPLNTAVANSALTIATRMGMDVTLLCPTPDYILDERYMDWAAQNVAESGGSLQVSHDIDSAYAGADVVYAKSWGALPFFGNWEPEKPIRDQYQHFIVDERKMALTNNGVFSHCLPLRRNVAATDAVMDSPNCIAIDEAENRLHVQKAIMAALVGQSRP
B2: N-acetyl-L-ornithine transcarbamylase from Xanthomonas campestris, K302E mutant (enzyme)
chain: B1 chain with A302E
B3: N-acetyl-L-ornithine transcarbamylase from Xanthomonas campestris, K302R mutant (enzyme)
chain: B1 chain with A302R

Target: the molecule itself
Test: crystal structure

Row | Protein | binding result
1 | B1 | binds
2 | B2 | binds
3 | B3 | binds
